Reference: paper PMC9701221 (Nature Communications, 2022)

B1: bacteriophage SPP1 head completion protein gp16 (stopper protein) (natural protein, UniProt O48446 1-109, looked up)
chain: MYEEFPDVITFQSYVEQSNGEGGKTYKWVDEFTAAAHVQPISQEEYYKAQQLQTPIGYNIYTPYDDRIDKKMRVIYRGKIVTFIGDPVDLSGLQEITRIKGKEDGAYVG
notes: Head completion (stopper) protein gp16 of bacteriophage SPP1; native protein from the virion connector; Hexamer in the connector; monomer in solution before assembly (PDB 2KCA, cited); source: CsCl gradient, EDTA disruption, glycerol gradient
B2: bacteriophage SPP1 portal protein gp6 (natural protein, UniProt P54309 1-503, looked up)
chain: MADIYPLGKTHTEELNEIIVESAKEIAEPDTTMIQKLIDEHNPEPLLKGVRYYMCENDIEKKRRTYYDAAGQQLVDDTKTNNRTSHAWHKLFVDQKTQYLVGEPVTFTSDNKTLLEYVNELADDDFDDILNETVKNMSNKGIEYWHPFVDEEGEFDYVIFPAEEMIVVYKDNTRRDILFALRYYSYKGIMGEETQKAELYTDTHVYYYEKIDGVYQMDYSYGENNPRPHMTKGGQAIGWGRVPIIPFKNNEEMVSDLKFYKDLIDNYDSITSSTMDSFSDFQQIVYVLKNYDGENPKEFTANLRYHSVIKVSGDGGVDTLRAEIPVDSAAKELERIQDELYKSAQAVDNSPETIGGGATGPALENLYALLDLKANMAERKIRAGLRLFFWFFAEYLRNTGKGDFNPDKELTMTFTRTRIQNDSEIVQSLVQGVTGGIMSKETAVARNPFVQDPEEELARIEEEMNQYAEMQGNLLDDEGGDDDLEEDDPNAGAAESGGAGQVS
notes: Portal protein gp6 of bacteriophage SPP1, 503 residues; native protein from the virion connector; traced in the cryoEM map from residue 28 to 470; Dodecamer in the connector gp6(12)gp15(12)gp16(6); the assembly-naive recombinant form (PDB 2JES) is a 13-mer; also called connector gp6; gp6 12-mer; source: CsCl gradient, EDTA disruption, glycerol gradient; copies: 12
B3: bacteriophage SPP1 head completion protein gp15 (adaptor protein) (natural protein, UniProt Q38584 1-102, looked up)
chain: MDIQRVKRLLSITNDKHDEYLTEMVPLLVEFAKDECHNPFIDKDGNESIPSGVLIFVAKAAQFYMTNAGLTGRSMDTVSYNFATEIPSTILKKLNPYRKMAR
notes: Head completion (adaptor) protein gp15 of bacteriophage SPP1; native protein from the virion connector; C-terminal residues ArgLysMetAlaArg, last residue named Arg102; Dodecamer in the connector; monomer in solution before assembly (PDB 2KBZ, cited); source: CsCl gradient, EDTA disruption, glycerol gradient; copies: 12

What was measured:
Experiment in all cases: cryo-EM structure; single particle cryoEM of the native gp6gp15gp16 connector extracted from tailless DNA-filled capsids, 0.64 mg/mL in 0.5x TBT (Tris-Cl pH 7.5, NaCl, MgCl2); C6 symmetry in the final refinement; 2.7 Å (FSC 0.5)
[1] = target: the molecule itself
[2] = target: B2; conditions: both partners purified
[3] = target: B1; conditions: both partners purified

B1
stoichiometry N [1]: 6

B2
stoichiometry N [1]: 12

B3
stoichiometry N [1]: 12
binding result [2]: binds
binding result [3]: binds
